The series can be described thus: label from the status in PepcDB records.
Regarding “MLNGLWLGFFLVAAVSAMAQWLVGGNAGIFAAMVESIFAMAKLSVEVMVLLFGTLTLWLGFLKIAEKAGIVEWLAKVLGPLFARLMPEVPPGHPALGLITMNFAANGLGLDNAATPIGLKAMRALQELNPGSTTASNAQILFLVLNASSLTLLPVTVFMYRAQQGAPDPTMVFLPILLATSVSTLVGLLSVAVMQRLRLWDPVVLAYFIPGALLLGGFMAFLGTLSAAALASLSSLLGNLTLFGVIMLFLVVGALKRVKVYEAFVEGATEGFDVAKSLLPYLVAMLVAVGVLRASGALELALDGIRHAVSWMGLDTRFVEGLPTALVKPFSGSAARAMLIETMQTQGVDSFPALVAATIQGSTETTFYVLAVYFGAVGIQRVRHAVGCALLAEFSGVVAAIFVCYWFFA”, the protein production entry is on record as “failed”. For the sequence “MLNPDELVAIDIHTHAEEPCGCHADDGYDDFQARMAEYFGSPNKHPPTVPETAAYYRAKKIAAVIFPVDAERETGFRRYNNDEMIEITRQNSDVLIPFASIDPHKGKIGVREARRLIADYGIKGFKFHPTMQGFYANDRLAYPLYEAIQEGGAIALFHTGQTGVGSGMPGGMGMRLKYSNPMYMDDVAADFPDMKIVLAHPSFPWQEEALSVATHKPNVYIDLSGWSPKYFPPILVRYINSILQDKMLFGSDWPVITPDRWLSDFAKLEIREEVRAKVLKQNARKLLGI”, the protein production result is given as “failed”. Then “MLNSDIYLKESLYDLLSLWRTPAFFLPAMLFPLVFYVFFGIVFNFSAAQGEYMLVSYACFGMMGPALFNYATAVASDRAQGWLTLKRISPMPLSAYVVAKFFSSLVFAACIALMLFITAALFADVQLLLWQWATLFTVLLIGTLPFALIGLLMGLCLSDKAAPAVVNLVYLPMAFLSGLWVPIQFLPDTVRYIAYGLPSYHYSQLAHAVIGTNQGHNLWLHGLYLVAFCGVLIAVIYWRYQRLSR”, with “failed”; and “MLNTLIVGASGYAGAELVSYVNRHPHMTITALTVSAQSNDAGKLISDLHPQLKGIVDLPLQPMSDVRDFSADVDVVFLATAHEVSHDLAPQFLQAGCVVFDLSGAFRVNDRAFYEKYYGFTHQYPELLEQAVYGLAEWNVDKLNTANLIAVPGCYPTAAQLSLKPLIDGGLLDLTQWPVINATSGVSGAGRKAAISNSFCEVSLQPYGVFTHRHQPEIAVHLGAEVIFTPHLGNFPRGILETITCRLKAGVTHAQVADVLQKAYGDKPLVRLYDKGVPALKNVVGLPFCDIGFAVQGEHLIVVATEDNLLKGAAAQAVQCANIRFGFAETQSLI”, with “not failed”; and “MLPAQDTRGKGLSLARRLYRSRTLGLALGFFCVAAGMAPLQPAPWVWGFMLFNAFAWPHLAYQWARLARVPFRAEYRNLLVDSLLGGFWVGAMHFNPLPLATTLGMMAMNNMALGGLRFFLAGSAAQVLGMGVALWLFGPAFVAQTTPEQVYACLPMLTLYPLALGYICYQQAVTLGRHKRELLALSRTDSLTGLLNHGAWKDQLEIEFQRCKRQAHGGAIALIDIDHFKAINDTYGHVAGDVVLRQLSKLLRQNLRVSDQAGRYGGDEFCVILPDVPLAHAAELMEALRGRFGALGYEQSPALQVSLSIGLAAFNPLHDDAMGWLNDADQALYAAKTCGRNNVTCHPPEQPSRRLLNSL”, with “failed”. Regarding “MLPAYIKIHDAIKKEIDKGTWKIGQRLPSERDLADDYSVSRMTLRQSITLLVEEGILERRVGSGTYVASHRVQEKMRGTTSFTEIVNSQGRKPSSKLISFQRKLANETEIQKLNLSQSDYVVRMERVRYADKVPLVYEVASIPENLIKGFEQSEVTEHFFKTLTENGYEIGKSQQTIYARNASERVASHLEVNAGHAILALTQVSYFTDGKPFEYVHGQYVGDRFEFYLENN”, the protein production result is recorded as “failed”.

With “MLPIYTGSAIQCPMRLDAYLVEMGHFKSRGRAKTAILDGKVKVNGIAVTKVSRDVSIDDTIEVAEGLDQPQGYFKLKYVQEESGVLKPGDRVLDLGSSAGGFLLFASEIADHVKGIEFSRDFRSELGKIAYERENVEIIFGDVFTIPLKELSEEPVDVILSDMTLEPEDSIKALSRMLPLLKEGGRLLQVIKIPKKKNPKPILSRIENLGLEIQQVLSSEKQEIYVVAKRPFLEGKESTEENE”, the protein production result was “failed”. With “MLPLLVGTGVLVFLLLFGDSLLQDSDSYWQIETGRWILAHGTVPTVDSFSFSKAGEPWQSSSWLAQLIFALAMQAGWAGPVIVTALAVAAALAMFTAYLERYASALVTAALALAAMVLIMPHVLARPHMLALPVMVAWFIGLIDAADRKAAPPWALLLVMALWANLHGGFVFGLMLIGPLGLEALRQAEPQRRLSLALRWAAFGIAAVAACCATPYGWGTLLAATKILSLGEVLSTLGEWASSDFSKFGTFEASLLALLGIALARGLTLPWPRLLLVLGLVHMALVHVRSIEHYALLVPMIAARPWALQLGLARKSAEAKPDLAPPAWAGVVAVIAIIAATIAAAPRLHYRFDEPQVPERALAAVQAHGAKRIFNAYIFGGYLISRHVPVFIDGRAELYGEARVMDMMRATAGRDPAALDRMLTGNDIDATMLPPSAAAVRQMDERPGWRRLYADDIAVVHVRD”, the protein production entry is reported as “failed”. With “MLPSGLKETQLRESNNNQKVHPQPMEESINQNPEAMEALISNLFGNISSLKSAYIELQSAHTPYDPEKIQAADKVVISELKNLSEMKHFYRENNPKPVCVSPQDSRLAAEIQEQQSLLKTYEVMVKKFQSEIQNKDSEITQMLQKIEEANQKRLKLEKNLKLRGMSTNEGSNGDGNMQFPDLTTELYVSTYEAAAKAVHDFSKPLINMMKAAGWDLDSAANSIEPDVVYAKRPHKKYAFESYICQRMFSGFQQKNFSVNSESAAVMANDDTDTFFRQFLALKDMDPLDALGTNPDSNFGIFCRSKYLLLVHPKMEASFFGNLDQRDYVTGGGHPRTAFYQAFLKLAKSIWILHRLAYSFDPAAKIFQVKKGSEFSDSYMESVVKNIVVDEKEENPRVGLMVMPGFWIGGSVIQSRVYVSGVKVLE”, the protein production entry was “failed”. For the sequence “MLPTKINLIRLRRELAMLRRIRRVMEEKREVILHYITSMAAEYVRYQREVYSELERIYQNYYLGVAAEGIERARAFTAPAEGSLEVDVSTRTLFAVKTPVFSLREETVPPLPLPAGSDPKLVQSILDMRSILDKLLKLAEYEETLQRLISELKDTQRLINALDYVILPSYQNAIKFIKLVLEDRMREDFVRLKIIKRKMEAKTQLEHHHHHH”, the protein production result is recorded as “not failed”. For “MLQIIFLVIGLFIIVLALSFAFKRYARLILWSSAITLFAGTLLLVGIGVINPIDGDNTGSTTFWGTIITLISGAALAFCAEMLKEGNKGKTKVQNGNSSVSGKQTADNEETVVLIGMLHTELAIKVFAKAIEAGYIGEKGSHYKWNDSKVLLAYMCGRIYCGDKPEYSEMDEKSYWKFGRMGVFPDTELSNLFEMPDLGQSRSNRKDLAVPAKSKEIDKFFE”, the protein production result is recorded as “failed”. Then “MLQRIGLIFLHNIVVVSNCFYFQAFLDEFTNWSRINPNKARIPMAGDTQGVVGTVSKPCFTAYEMKIGAITFQVATGDIATEQVDVIVNSTARTFNRKSGVSRAILEGAGQAVESECAVLAAQPHRDFIITPGGCLKCKIIIHVPGGKDVRKTVTSVLEECEQRKYTSVSLPAIGTGNAGKNPITVADNIIDAIVDFSSQHSTPSLKTVKVVIFQPELLNIFYDSMKKRDLSASLNFQSTFSMTTCNLPEHWTDMNHQLFCMVQLEPGQSEYNTIKDKFTRTCSSYAIEKIERIQNAFLWQSYQVKKRQMDIKNDHKNNERLLFHGTDADSVPYVNQHGFNRSCAGKNAVSYGKGTYFAVDASYSAKDTYSKPDSNGRKHMYVVRVLTGVFTKGRAGLVTPPPKNPHNPTDLFDSVTNNTRSPKLFVVFFDNQAYPEYLITFTA”, with “failed”; and “MLQTIKRADSAVSIIGAGIAGAWQALLFAQAGHAVTLHERGDAAMTDSTSHWAGGMLAPWCEAEVAEPIISRLGQRSLDIWRRELPDTPFNGSLVVAHPRERNDFERFARMTEEHRRLDAASLAELEPSLEGRFRDALFFPTEGHVEPRRVLPKLHERIRAAGGTIKFSSDVSAADLDGIVIDCRGLSARDEQPDLRGVKGEMILIETSEVQLARPVRLIHPRWPLYVIPREDNLFMLGATSIEAEDTGVSVRSALELLGAAYTVHPAFGEARIVEFGSGLRPAFPDNLPRIGIRGGRITVNGLYRHGFLIAPALAELTLQYVQRGQIDNEVMQCG”, with “failed”; and “MLQTLYTIILYLIQPLIWIRLWLRGRKAPAYRRRWGERYGFCAEKVKPDGIMLHSVSVGETLAAIPLVRALRHRYPNLPITVTTMTPTGSERVRSAFGDTVYHVYLPYDLPCALKRFFDQVRPKIVIIMETELWPNLIAELHKREIPLVIANARLSERSAAGYKKIGKLMRHILQRITLVAAQNQEDGNRFIALGLKRSSLKVTGSLKFDISVTPELAARAITLRRQWAPHRPVWIATSTHEGEEAIVLAAHRRLLATYPDLLLILVPRHPERFSTTQALAESMGFNYTLRSSGEQPSANTQVVIGDTMGELMLLYGIADLAFVGGSLVERGGHNPLEAAAHAIPVLMGPHTFNFKDICNKLDQADGLITVTDADSLGKEVGKLLADEDYRLYYGRHAVEVLHQNQGALQMLLTLLEPYLPQRTQLEHHHHHH”, with “not failed”. Regarding “MLQYGQKSFLIVDDFTDFRTSTRSMLRELGVRDVDTADSGEQALRMCAQKRYDFILQDFHLGDGKKNGQQVLEDLIIDKHISHECVFIMVTAESSQAIVLSAIEHEPDAYLTKPFNRVGLAQRVEKLFQRKTLLKPILQALDRNRPAEVLAACAELCKKDPRLAPLCLRYRADALRNLNRFEELEKFLKAILASRPQPWVYAALGALMHKRGQNAQAQGVYEQALKAFPIMPGLYDGMAEVLVAQGDTRRAQNLLEEAVRLSPLSVRRQSTLGKLALENEDFESASKAFRHAVNQGQSSRYKDAENNLGLVQALMSKNAGFGLDARTRVEINTTLSEVAKENPEDQGLQVRARMMKAASLQQAGDPETAGKLTEQAIQRLDKMNQFFSVDSALTVAAQLQAMGQEAAAIGVLKNCVESYGDDPKVMEKVGKLTDDPSVLNAITEAVTLNRQGVRSYQGGQLGEALQLFRKALGLQPKNISIALNTAQALLRIGGDNPQPAIMQECRDALTSVAGIPASDNRYDRYRKLHIRVFGA”, the protein production result is given as “failed”.

As for “MLRFKRKNFFKTINFKIALVFALLLLITLEIVGAIFVKQLESKNIQDFKQSVQIPTYIDNSLSEQLTVSSTRKANGQIKTILSNYNNTNVDEIQVVDSKGTIRGTSDVNDQSVVGQKTTDRNVKNAIYNNRTYTKSTYDTQNNGRYYVSIVPLYSSNSAGNSSQLVGVLYVRANMKSVYSTINNIMGIFVIASLAAMVLGLGIAIIIARAITRPIEEMKQQTQRIARGDYAGQVRVYSDDELGQLAKAINNLSIRVEESQESTEAERRRLDSVLSHMSDGVIATDRRGNITIINETASDFMDVTAEKAIGNSILDILKIRDDYSLRDLIENQDELMLDFSSNERDLILNAYFSLIQRESGFISGLVCVLHDVTEQQKIDNDRKQFVSNVSHELRTPLTSLRSYIEALSDGAWKDPEVAPGFLKVTQEETDRMIRMINELLSLSRMDSGTTRVDMELVNINEMFNYVLDRFDMILKKDDNPAKYYTIKREFTKRDLWVEIDTDKFTQVLDNIMNNAIKYSPDGGVVTCRLLETHNQVIISISDQGLGIPRADLGHVFDRFFRVDKARSRAQGGTGLGLAISKEVVQMLGGRIWVDSVEGKGSTFYISLPYEPYEEEDLWDDDSQA”, the protein production entry was “failed”. Take “MLRIYAPASSANISVGFDTLGAAISPIDGSLLGDVVQIESISTGFELESAGYFVRKLPKEPQKNIVYQAYVLFSEQLKLRGANVKPLRLTLEKNMPIGSGLGSSACSIVAALVALNQFHNEPFSKMELLEMMGELEGRISGSIHYDNVAPCYLGGVQFMVQS”: the protein production result is listed as “failed”.

(Values after a protein production outcome set (Wang et al. 2014).)
